How the values were obtained:
[1] = target: T1, human complement C3b protein (human, UniProt P01024 23-667; P01024 749-1663); assay: AlphaScreen bead proximity, C3b-Acceptor beads pre-incubated with antibody, then biotinylated fB(D24G/N260D) and SA-Donor beads; blocked ligand: fB [A]
T1 construct: Purified plasma C3b (Complement Technology, Quidel); Depending on the assay it was captured by an anti-C3d antibody, coated, biotinylated or coupled to beads; also called human C3b; huC3b

[2] = target: T1, human complement C3b protein
[3] = target: T1, human complement C3b protein; assay: AlphaScreen bead proximity, C3b-Acceptor beads pre-incubated with antibody, then biotinylated fH and SA-Donor beads; blocked ligand: fH [C]
[4] = target: T1, human complement C3b protein; assay: AlphaScreen bead proximity, C3b-Acceptor beads pre-incubated with antibody, then C3b-Donor beads; inhibition of C3b-C3b dimer formation; unit from the axis [Antibody] nM [D]
Protocol: In brief, purified C3b and fP were conjugated to unconjugated acceptor or donor beads (PerkinElmer) using AminoLink Reductant (Pierce) during a 48 h incubation at room temperature. Beads were quenched using Carboxymethoxylamine Hemihydrochloride (Aldrich), and purified by centrifugation at 13000 rpm and three washes with 0.1M TBST. Purified fB(D24G/N260D) and fH were biotinylated during a 30 min incubation with 20-fold molar excess of NHS-Chromogenic-biotin (Pierce) at room temperature, and purified using Zeba 0.5 ml desalting columns (Pierce).
For C3b-C3b and C3b-fP proximity, Fabs or IgGs respectively were pre-incubated with C3b-Acceptor beads (20 μg/ml) for 60 min at room temperature. C3b-Donor beads or fP-Donor beads (20 μg/ml) were then added, and the plate was incubated overnight at room temperature before reading. For C3b-fB and C3b-fH proximity, antibodies were pre-incubated with C3b-Acceptor beads (20 μg/ml) for 60 minutes at room temperature. Biotinylated fB(D24G/N260D) or fH were then added, and incubated for 60 minutes at room temperature. SA-Donor beads were then added (20 μg/ml) and the plate was incubated overnight at room temperature before reading. Plates were read on the BMG Pherastar (ex=680, em=520-620).

human C3d [5] = target: T2, human C3d (human, UniProt P01024 1002-1303); assay: C3d binding ELISA, IgG titrated from about 0.006 to 100 nM
T2 construct: domain: C3d
T2 sequence (P01024 1002-1303 limits assumed): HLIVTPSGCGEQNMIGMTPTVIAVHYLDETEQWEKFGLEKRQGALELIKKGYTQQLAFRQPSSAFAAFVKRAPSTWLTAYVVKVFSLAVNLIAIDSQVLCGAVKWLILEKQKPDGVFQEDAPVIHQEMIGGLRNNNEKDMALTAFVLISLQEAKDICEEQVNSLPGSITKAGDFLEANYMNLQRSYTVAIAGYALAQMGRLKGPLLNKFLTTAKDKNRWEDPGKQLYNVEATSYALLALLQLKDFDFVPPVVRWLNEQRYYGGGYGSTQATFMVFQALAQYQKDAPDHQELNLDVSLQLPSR

[6] = target: T3, cynomolgus complement C3b protein (cynomolgus monkey (Macaca fascicularis)); assay: SPR (Biacore T100), C3b captured by anti-C3d antibody, IgG as analyte, 1:1 model
T3 construct: also called cyno C3b; cynoC3b

[7] = target: T1, human complement C3b protein; assay: as above
[8] = target: T1, human complement C3b protein; assay: cell-based or functional assay
[9] = target: T1, human complement C3b protein; assay: ELISA, C3b captured on coated anti-C3d antibody, antibody titrated (axis: IgG concentration)
Protocol: The C3b antibodies were examined to determine whether they were selective for binding to C3b relative to the C3b precursor C3. Briefly, binding selectivity for C3b was determined by performing the following steps. Coat Maxisorp plate Nunc (442404) with anti-C3d rabbit monoclonal (abcam 17453) at 2 μg/ml in Carbonate Buffer at 100 μl/well. Seal plates and incubate at 4° C. overnight. Aspirate plates and wash 3 times with PBS/0.5% Tween 20. Block plates with Diluent (PBS, 4% BSA Fraction V (Fisher ICN16006980), 0.1% Tween 20 (Sigma P1379), 0.1% Triton X-100 (Sigma P234729)) and incubate for 2 h at room temperature or overnight at 4° C. Then wash plates once with PBS/0.5% Tween 20. Dilute purified C3b (complement technologies A114 lot 21) and C3 (complement technologies A113c) at 1 μg/ml in diluent and plate 100 μl per well. Incubate for 1 h at room temperature. Then wash 3 times with PBS/0.5% Tween 20.
Dilute Fabs at 100 nM and subsequent dilutions (or higher concentration) in diluent and plate 100 μl per well. Incubate at room temperature for 1 h. Wash plates 3 times with PBS/0.5% Tween 20. Add 100 μl/well of anti-Histidine-HRP monoclonal detection antibody at 1:400 in diluent and incubate at room temperature for 1 h. Then wash 4 times with PBS/0.5% Tween 20. […] Add 50 μl of Stop solution (2N Sulfuric Acid) to each well and read plate at 450 nm and correct for plastic reading at 570 nm.

human C5 = target: T4, human C5 (human, UniProt P01031 19-673; P01031 678-1676); assay: cross reactivity, capture ELISA with anti-C5 capture antibody, anti-His detection
T4 construct: Captured by an anti-C5 antibody in the ELISA
T4 sequence (P01031 19-673 limits assumed, chain 1 of 2): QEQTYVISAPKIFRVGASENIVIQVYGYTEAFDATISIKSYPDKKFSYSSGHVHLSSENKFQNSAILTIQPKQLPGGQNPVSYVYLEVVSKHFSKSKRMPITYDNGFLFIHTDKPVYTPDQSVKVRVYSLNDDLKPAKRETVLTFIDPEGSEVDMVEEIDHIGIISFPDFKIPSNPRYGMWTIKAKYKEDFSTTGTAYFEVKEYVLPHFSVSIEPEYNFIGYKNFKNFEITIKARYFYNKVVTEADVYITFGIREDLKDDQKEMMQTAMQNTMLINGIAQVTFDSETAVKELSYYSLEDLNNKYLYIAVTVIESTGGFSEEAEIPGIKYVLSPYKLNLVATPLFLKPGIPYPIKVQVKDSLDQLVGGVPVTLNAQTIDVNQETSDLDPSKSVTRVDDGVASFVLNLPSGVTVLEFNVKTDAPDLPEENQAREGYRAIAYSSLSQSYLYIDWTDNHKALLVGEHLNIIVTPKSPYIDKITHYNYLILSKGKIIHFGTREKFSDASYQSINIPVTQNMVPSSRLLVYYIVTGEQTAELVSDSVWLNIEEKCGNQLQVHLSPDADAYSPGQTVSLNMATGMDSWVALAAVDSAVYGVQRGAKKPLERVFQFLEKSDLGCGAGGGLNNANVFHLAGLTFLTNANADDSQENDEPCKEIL
T4 sequence (P01031 678-1676 limits assumed, chain 2 of 2): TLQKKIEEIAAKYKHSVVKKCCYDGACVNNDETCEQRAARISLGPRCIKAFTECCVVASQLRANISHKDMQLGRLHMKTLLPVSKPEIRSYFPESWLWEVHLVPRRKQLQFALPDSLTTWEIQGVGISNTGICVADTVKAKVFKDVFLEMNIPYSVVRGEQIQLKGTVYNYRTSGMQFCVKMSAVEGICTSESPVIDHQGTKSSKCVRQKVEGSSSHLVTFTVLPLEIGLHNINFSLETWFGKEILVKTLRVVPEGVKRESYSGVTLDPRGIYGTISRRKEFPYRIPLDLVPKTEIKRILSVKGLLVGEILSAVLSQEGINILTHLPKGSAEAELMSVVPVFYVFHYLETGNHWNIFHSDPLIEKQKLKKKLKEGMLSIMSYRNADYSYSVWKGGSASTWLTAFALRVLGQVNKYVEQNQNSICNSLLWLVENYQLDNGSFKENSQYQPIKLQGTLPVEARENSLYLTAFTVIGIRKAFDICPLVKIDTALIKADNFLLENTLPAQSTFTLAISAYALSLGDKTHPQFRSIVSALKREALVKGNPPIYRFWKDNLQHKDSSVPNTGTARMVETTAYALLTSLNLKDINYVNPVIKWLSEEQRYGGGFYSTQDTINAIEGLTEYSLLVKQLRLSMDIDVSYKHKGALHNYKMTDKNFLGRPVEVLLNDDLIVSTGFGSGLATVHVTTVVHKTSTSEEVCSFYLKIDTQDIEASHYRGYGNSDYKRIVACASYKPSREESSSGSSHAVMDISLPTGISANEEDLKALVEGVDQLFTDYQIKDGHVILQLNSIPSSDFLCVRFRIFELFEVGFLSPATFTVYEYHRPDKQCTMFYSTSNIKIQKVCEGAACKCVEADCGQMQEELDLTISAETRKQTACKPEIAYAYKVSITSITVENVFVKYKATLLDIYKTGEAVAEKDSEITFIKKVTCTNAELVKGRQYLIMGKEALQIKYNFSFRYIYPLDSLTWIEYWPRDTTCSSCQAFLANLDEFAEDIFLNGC

[10] = target: T3, cynomolgus complement C3b protein; assay: cell-based or functional assay
[11] = target: T1, human complement C3b protein; assay: cell-based or functional assay; remark: listed apart in the source
human C3d [12] = target: T2, human C3d; assay: cross reactivity, ELISA on C3d, anti-His detection
[13] = target: T3, cynomolgus complement C3b protein; assay: SPR (Biacore), C3b captured by anti-C3d antibody, Fab as analyte
[14] = target: T1, human complement C3b protein; assay: as above
[15] = target: T3, cynomolgus complement C3b protein; assay: solution equilibrium titration (SET), ECL detection, Fab
[16] = target: T1, human complement C3b protein; assay: as above

T1 sequence (P01024 23-667 P314L, chain 1 of 2): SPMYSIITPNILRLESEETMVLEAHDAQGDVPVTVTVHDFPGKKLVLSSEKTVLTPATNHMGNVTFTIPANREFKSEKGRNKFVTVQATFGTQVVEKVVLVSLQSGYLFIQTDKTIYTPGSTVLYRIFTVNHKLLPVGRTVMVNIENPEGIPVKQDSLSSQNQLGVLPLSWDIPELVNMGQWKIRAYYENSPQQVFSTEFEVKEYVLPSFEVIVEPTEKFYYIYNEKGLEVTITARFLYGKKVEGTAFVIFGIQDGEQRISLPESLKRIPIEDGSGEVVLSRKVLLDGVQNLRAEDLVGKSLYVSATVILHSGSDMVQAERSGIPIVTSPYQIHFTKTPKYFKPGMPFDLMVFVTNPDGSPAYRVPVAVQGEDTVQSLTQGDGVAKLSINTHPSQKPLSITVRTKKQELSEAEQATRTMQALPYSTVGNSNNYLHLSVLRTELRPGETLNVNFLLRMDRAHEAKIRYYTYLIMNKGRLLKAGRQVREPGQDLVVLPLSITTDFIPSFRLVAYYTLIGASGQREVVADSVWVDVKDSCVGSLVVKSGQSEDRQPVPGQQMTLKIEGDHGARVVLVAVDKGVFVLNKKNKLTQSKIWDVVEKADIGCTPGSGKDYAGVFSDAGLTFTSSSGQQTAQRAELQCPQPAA
T1 sequence (P01024 749-1663, chain 2 of 2): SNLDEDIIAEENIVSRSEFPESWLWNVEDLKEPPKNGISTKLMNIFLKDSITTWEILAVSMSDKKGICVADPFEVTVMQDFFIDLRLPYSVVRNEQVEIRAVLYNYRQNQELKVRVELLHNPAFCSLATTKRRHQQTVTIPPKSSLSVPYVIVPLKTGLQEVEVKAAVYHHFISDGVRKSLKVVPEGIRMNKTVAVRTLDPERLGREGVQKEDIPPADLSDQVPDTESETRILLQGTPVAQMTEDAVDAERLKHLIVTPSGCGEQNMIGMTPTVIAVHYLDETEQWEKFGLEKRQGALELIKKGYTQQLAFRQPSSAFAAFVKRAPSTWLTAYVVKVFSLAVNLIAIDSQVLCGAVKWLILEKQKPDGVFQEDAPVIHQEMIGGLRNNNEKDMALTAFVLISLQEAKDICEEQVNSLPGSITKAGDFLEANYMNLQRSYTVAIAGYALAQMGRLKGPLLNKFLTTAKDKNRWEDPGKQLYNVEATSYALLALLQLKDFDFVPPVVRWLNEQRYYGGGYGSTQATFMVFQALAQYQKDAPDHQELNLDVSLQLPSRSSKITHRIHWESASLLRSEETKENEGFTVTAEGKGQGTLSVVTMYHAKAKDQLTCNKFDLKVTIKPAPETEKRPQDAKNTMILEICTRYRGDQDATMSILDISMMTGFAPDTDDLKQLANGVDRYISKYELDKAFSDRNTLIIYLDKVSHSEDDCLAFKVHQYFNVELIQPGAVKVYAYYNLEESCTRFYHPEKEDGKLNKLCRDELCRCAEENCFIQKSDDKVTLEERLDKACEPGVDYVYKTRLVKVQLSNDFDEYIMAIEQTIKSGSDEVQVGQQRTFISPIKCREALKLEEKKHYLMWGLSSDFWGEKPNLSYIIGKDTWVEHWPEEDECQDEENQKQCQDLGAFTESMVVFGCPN

B1: MOR09556 IgG (antibody, V domains shown)
VH: EVQLVESGGGLVQPGGSLRLSCAASGFTFSSYWMTWVRQAPGKGLEWVSSIKIKPDGYAASVKGRFTISRDNSKNTLYLQMNSLRAEDTAVYYCARLFYQYFARMDYWGQGTLVTVSS
VL: DIQMTQSPSSLSASVGDRVTITCRASQDISNYLNWYQQKPGKAPKLLIYAASNLQSGVPSRFSGSGSGTDFTLTISSLQPEDFATYYCQQYDSYSPTFGQGTKVEIKR
notes: Germlined human IgG1 with leucines 234 and 235 changed to alanines, kappa; also called antibody 9556
IC50 (read off the curve) [1]: ~0.05 nM
fold binding selectivity for C3b over C3 [2]: 1000 fold
IC50 (read off the curve) [3]: ~0.04 nM
EC50 [4]: 300 nM
binding result (human C3d [5]): no binding (tested: 100 nM)
Kd [6]: 0.0102 nM
koff [6]: 4.67e-05 s⁻¹
kon [6]: 4.57e+06 M⁻¹ s⁻¹
Kd [7]: 0.0001 nM
koff [7]: 3.21e-07 s⁻¹
kon [7]: 3.21e+06 M⁻¹ s⁻¹
MAC deposition on zymosan, IC50 [8]: ≤ 5 nM
hemolysis of rabbit red blood cells, 10% human or cynomolgus serum, IC50 [8]: ≤ 50 nM
inhibition of C3a and C5a generation during hemolysis, IC50 [8]: ≤ 50 nM
EC50 (read off the curve) [9]: ~0.08 nM

B2: MOR9610 Fab format (Fab, V domains shown)
VH: EVQLVQSGAEVKKPGSSVKVSCKASGGTFSSYTFSWVRQAPGQGLEWMGNILPIFGDANYAQKFQGRVTITADESTSTAYMELSSLRSEDTAVYYCARNKGAFYYMSTYPSLDVWGQGTLVTVSS
VL: DIQMTQSPSSLSASVGDRVTITCRASQNINYYLNWYQQKPGKAPKLLIYDAFSLQSGVPSRFSGSGSGTDFTLTISSLQPEDFATYYCQQSIAVPPFTFGQGTKVEIK
binding result (human C5): no binding
C3b Dep (nM), cyno serum, IC50 [10]: 39 nM
HA (nM), 10% cyno serum, IC50 [10]: 64 nM
MAC Dep (nM), cyno serum, IC50 [10]: 18 nM
C3a (nM), human, inhibition of C3a generation [11]: 66 nM
C3b Dep (nM), human serum, IC50 [11]: 20 nM
C5a (nM), human, inhibition of C5a generation [11]: 34 nM
HA (nM), 10% human serum, IC50 [11]: 63 nM
MAC Dep (nM), human serum, IC50 [11]: 4 nM
binding result (human C3d [12]): no binding
Kd [13]: 0.07 nM
Kd [14]: 0.114 nM
Kd [15]: 0.006 nM
Kd [16]: 0.018 nM

Reference: patent publication US20100291106A1 (Novartis, published 2010)
